From US20220184172

Legend:
[1] = test system: recombinant Caspase-6 (Origene, Cat. TP760261)
[2] = test system: purified caspase-6-myc expressed in HEK293T cells
[3] = test system: purified Bax-HA expressed in HEK293T cells
[4] = test system: purified Bid-HA expressed in HEK293T cells
[5] = test system: T1, recombinant Bid (R&D Systems, Cat. 846-BD-50)
T1 sequence: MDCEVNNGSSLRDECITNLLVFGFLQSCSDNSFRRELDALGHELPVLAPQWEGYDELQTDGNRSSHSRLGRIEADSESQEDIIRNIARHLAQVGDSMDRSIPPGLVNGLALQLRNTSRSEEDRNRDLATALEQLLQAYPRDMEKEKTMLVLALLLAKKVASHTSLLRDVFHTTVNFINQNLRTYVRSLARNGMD

Chain of recombinant AMPKα1β1γ1 active kinase (Q13131 whole entry): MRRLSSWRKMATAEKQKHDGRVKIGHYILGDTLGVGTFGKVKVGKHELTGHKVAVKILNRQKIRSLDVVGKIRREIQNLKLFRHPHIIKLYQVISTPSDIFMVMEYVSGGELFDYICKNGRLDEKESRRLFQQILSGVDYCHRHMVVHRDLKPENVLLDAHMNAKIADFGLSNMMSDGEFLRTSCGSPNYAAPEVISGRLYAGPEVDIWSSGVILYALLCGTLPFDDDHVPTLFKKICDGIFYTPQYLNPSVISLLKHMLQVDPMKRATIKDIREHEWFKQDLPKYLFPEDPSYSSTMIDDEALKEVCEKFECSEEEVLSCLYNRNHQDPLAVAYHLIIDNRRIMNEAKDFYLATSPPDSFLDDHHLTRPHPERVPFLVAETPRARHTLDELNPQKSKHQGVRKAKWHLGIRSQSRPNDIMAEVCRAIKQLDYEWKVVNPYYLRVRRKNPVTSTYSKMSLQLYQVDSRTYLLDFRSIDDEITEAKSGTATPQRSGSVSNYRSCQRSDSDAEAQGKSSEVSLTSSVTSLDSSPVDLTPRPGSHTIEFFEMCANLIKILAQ
Chain of recombinant AMPKα1β1γ1 active kinase (Q9Y478 2-270, further chain): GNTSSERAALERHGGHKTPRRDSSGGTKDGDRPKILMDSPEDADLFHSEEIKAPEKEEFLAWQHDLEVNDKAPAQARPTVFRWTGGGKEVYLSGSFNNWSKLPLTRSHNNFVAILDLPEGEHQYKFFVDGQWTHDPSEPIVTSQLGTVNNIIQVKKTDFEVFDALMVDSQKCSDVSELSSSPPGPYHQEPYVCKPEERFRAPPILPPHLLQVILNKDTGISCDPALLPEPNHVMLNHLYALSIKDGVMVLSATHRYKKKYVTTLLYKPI
Chain of recombinant AMPKα1β1γ1 active kinase (P54619 whole entry, further chain): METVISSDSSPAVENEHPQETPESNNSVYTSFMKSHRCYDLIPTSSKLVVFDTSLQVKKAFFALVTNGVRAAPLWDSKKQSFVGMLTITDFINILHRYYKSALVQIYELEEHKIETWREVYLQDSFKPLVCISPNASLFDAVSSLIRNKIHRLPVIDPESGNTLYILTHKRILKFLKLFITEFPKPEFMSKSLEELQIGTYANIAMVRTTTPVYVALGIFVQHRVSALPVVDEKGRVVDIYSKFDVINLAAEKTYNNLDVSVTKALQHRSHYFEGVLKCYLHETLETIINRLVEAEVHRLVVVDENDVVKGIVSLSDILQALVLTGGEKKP
Chain of recombinant AMPKα2β1γ1 active kinase (P54646 whole entry): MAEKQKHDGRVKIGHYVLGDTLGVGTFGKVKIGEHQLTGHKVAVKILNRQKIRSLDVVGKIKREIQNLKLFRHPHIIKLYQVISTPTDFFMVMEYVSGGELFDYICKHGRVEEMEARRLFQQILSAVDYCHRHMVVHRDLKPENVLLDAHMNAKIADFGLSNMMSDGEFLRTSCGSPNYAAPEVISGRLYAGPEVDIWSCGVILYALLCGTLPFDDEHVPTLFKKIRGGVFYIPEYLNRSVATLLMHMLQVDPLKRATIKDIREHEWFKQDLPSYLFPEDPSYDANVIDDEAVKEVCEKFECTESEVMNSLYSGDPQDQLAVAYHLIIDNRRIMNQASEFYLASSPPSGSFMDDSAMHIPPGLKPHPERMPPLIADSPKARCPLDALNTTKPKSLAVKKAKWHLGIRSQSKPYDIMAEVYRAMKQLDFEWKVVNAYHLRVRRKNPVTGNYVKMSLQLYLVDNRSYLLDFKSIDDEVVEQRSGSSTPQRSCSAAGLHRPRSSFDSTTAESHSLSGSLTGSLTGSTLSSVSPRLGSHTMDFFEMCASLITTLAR
Chain of recombinant AMPKα2β1γ1 active kinase (Q9Y478 2-270, further chain): as the sequence (Q9Y478 2-270, further chain) above
Chain of recombinant AMPKα2β1γ1 active kinase (P54619 whole entry, further chain): as the sequence (P54619 whole entry, further chain) above

active caspase-7
in vitro cleavage assay [1]: procaspase-6 was directly cleaved by caspase-3 and -7, but not caspase-8 or -9

active caspase-8
in vitro cleavage assay [1]: procaspase-6 was directly cleaved by caspase-3 and -7, but not caspase-8 or -9

recombinant AMPKα1β1γ1 active kinase
in vitro kinase assay, phosphorylation of Ser257 (FIG. 15C) [2]: Both recombinant AMPKα1 and AMPKα2 directly phosphorylated procaspase-6 at Ser^257 in vitro | in vitro kinase assay, phosphorylation of Ser257 [1]: Both recombinant AMPKα1 and AMPKα2 directly phosphorylated procaspase-6 at Ser^257 in vitro

active caspase-3
in vitro cleavage assay [1]: procaspase-6 was directly cleaved by caspase-3 and -7, but not caspase-8 or -9

active caspase-9
in vitro cleavage assay [1]: procaspase-6 was directly cleaved by caspase-3 and -7, but not caspase-8 or -9

active caspase-6
in vitro cleavage assay [3]: active caspase-6 cleaved purified Bcl2 family protein Bid (BH3 interacting-domain death agonist), but not Bax (Bcl2 associated X) in vitro | in vitro cleavage assay [4]: active caspase-6 cleaved purified Bcl2 family protein Bid (BH3 interacting-domain death agonist), but not Bax (Bcl2 associated X) in vitro | in vitro cleavage assay [5]: Active caspase-6 cleaves Bid to generate two cleaved peptide fragments

recombinant AMPKα2β1γ1 active kinase
in vitro kinase assay, phosphorylation of Ser257 [1]: Both recombinant AMPKα1 and AMPKα2 directly phosphorylated procaspase-6 at Ser^257 in vitro
